B1: wild-type 14-3-3γ-3xHA [human] / GFP-SLP76 [human] (parent)
chain 1: MVDREQLVQKARLAEQAERYDDMAAAMKNVTELNEPLSNEERNLLSVAYKNVVGARRSSWRVISSIEQKTSADGNEKKIEMVRAYREKIEKELEAVCQDVLSLLDNYLIKNCSETQYESKVFYLKMKGDYYRYLAEVATGEKRATVVESSEKAYSEAHEISKEHMQPTHPIRLGLALNYSVFYYEIQNAPEQACHLAKTAFDDAIAELDTLNEDSYKDSTLIMQLLRDNLTLWTSDQQDDDGGEGNN
chain 2: MALRNVPFRSEVLGWDPDSLADYFKKLNYKDCEKAVKKYHIDGARFLNLTENDIQKFPKLRVPILSKLSQEINKNEERRSIFTRKPQVPRFPEETESHEEDNGGWSSFEEDDYESPNDDQDGEDDGDYESPNEEEEAPVEDDADYEPPPSNDEEALQNSILPAKPFPNSNSMYIDRPPSGKTPQQPPVPPQRPMAALPPPPAGRNHSPLPPPQTNHEEPSRSRNHKTAKLPAPSIDRSTKPPLDRSLAPFDREPFTLGKKPPFSDKPSIPAGRSLGEHLPKIQKPPLPPTTERHERSSPLPGKKPPVPKHGWGPDRRENDEDDVHQRPLPQPALLPMSSNTFPSRSTKPSPMNPLPSSHMPGAFSESNSSFPQSASLPPYFSQGPSNRPPIRAEGRNFPLPLPNKPRPPSPAEEENSLNEEWYVSYITRPEAEAALRKINQDGTFLVRDSSKKTTTNPYVLMVLYKDKVYNIQIRYQKESQVYLLGTGLRGKEDFLSVSDIIDYFRKMPLLLIDGKNRGSRYQCTLTHAAGYP

Variants of B1 are the subject of the experiment. Briefly: co-immunoprecipitation, quantified Western blot. To be noted: with GFP-SLP76 [human]; N2a cells; read off a plot. (In general: A western blot detects proteins with antibodies after separation by electrophoresis.)
As for chain 1 MVDREQLVQKARLAEQAERYDDMAAAMKNVTELNEPLSNEERNLLSVAYKNVVGARCSSWRVISSIEQKTSADGNEKKIEMVRAYREKIEKELEAVCQDVLSLLDNYLIKNCSETQYESKVFYLKMKGDYYRYLAEVATGEKRATVVESSEKAYSEAHEISKEHMQPTHPIRLGLALNYSVFYYEIQNAPEQACHLAKTAFDDAIAELDTLNEDSYKDSTLIMQLLRDNLTLWTSDQQDDDGGEGNN [chain 1 R57C], the ratio to parent (fold of wild-type) was 0.2.
